Laboratory results from paper PMC8329864, “Mycobacterium tuberculosis ferritin: a suitable workhorse protein for cryo-EM development” (Acta Crystallographica. Section D, Structural Biology, 2021).

Target: the molecule itself
Experiment: SEC

B1: bacterioferritin B (BfrB) from Mycobacterium tuberculosis (natural protein)
chain: MTEYEGPKTKFHALMQEQIHNEFTAAQQYVAIAVYFDSEDLPQLAKHFYSQAVEERNHAMMLVQHLLDRDLRVEIPGVDTVRNQFDRPREALALALDQERTVTDQVGRLTAVARDEGDFLGEQFMQWFLQEQIEEVALMATLVRVADRAGANLFELENFVAREVDVAPAASGAPHAAGGRL
notes: also called BrfB; mycobacterial ferritin; copies: 24
  binding result: binds
